Measurements taken from patent US6509447B1, “G protein chimeras and methods of screening compounds” (Glaxo Welcome Inc., priority 1997, dated 2003).

Key:
[1] = biological target: T1, somatostatin SST2 receptor (Homo sapiens, UniProt P30874); assay: Reverse halo assay for FUS1-HIS3 expression, MMY9 cells, SST2; format: cell-based; details: MMY9 cells with pRS314-GPA1 and SST2 receptor, 3 nmol somatostatin-14
T1 construct: expressed in transfected cells; host or cells: Saccharomyces cerevisiae strains MMY9 and MMY11, plasmid pFL61-SST2, PGK1 promoter
T1 sequence (P30874 whole entry): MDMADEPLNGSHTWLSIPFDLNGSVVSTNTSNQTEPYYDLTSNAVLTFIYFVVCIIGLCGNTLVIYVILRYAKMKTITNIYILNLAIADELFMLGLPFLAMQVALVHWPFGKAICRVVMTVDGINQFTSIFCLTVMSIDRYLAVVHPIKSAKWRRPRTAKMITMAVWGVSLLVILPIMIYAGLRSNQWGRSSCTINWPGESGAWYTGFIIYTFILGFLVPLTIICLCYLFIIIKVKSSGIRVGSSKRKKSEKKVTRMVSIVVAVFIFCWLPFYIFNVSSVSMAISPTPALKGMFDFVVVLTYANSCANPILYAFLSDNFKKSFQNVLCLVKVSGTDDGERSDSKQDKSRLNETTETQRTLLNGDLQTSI
Procedure: (§1) Assay for FUS1-HIS3 Expression. Reverse halo assays were carried out by growing MMY9 cells to early stationary phase (OD600≈4) in liquid SC-glucose (2%) medium lacking tryptophan and uracil. A uniform layer of cells (5×10^7) was plated to 22.5 cm by 22.5 cm bioassay dishes (Nunc) in 100 ml SC-glucose agar (1%) equilibrated to 50° C. This medium lacked tryptophan, uracil and histidine, and was supplemented with 10 mM 3-aminotriazole, and buffered to pH 7.0 with 0.1M sodium phosphate. Antibiotic discs were placed on the solidified agar, and a volume of agonist solution (1-5 μl) was applied to each disc. Plates were incubated at 30° C. for 3 days.
(§2) The four receptors were: the melatonin ML1B receptor, the serotonin 5HT1A receptor, the somatostatin SST2 receptor and the purinergic nucleotide receptor, P2Y2. […] Activation of the pheromone response pathway was monitored with two integrated reporter genes: […] allowing a growth readout in medium lacking histidine, and FUS1-lacZ allowing a β-galactosidase readout. […] Agonist-dependent activation of FUS1-HIS3 was determined by reverse halo assay in which agonists were applied to the filter discs in the arrangement shown in panel A, in quantities as follows: 3 nmol of somatostatin-14 (S-14); 40 nmol of melatonin (Mel); 3 nmol of α-factor; 100 nmol of UTP; 40 nmol of serotonin (5-HT). […]

[2] = biological target: T2, Ste2p (Saccharomyces cerevisiae, UniProt D6VTK4); assay: Reverse halo assay for FUS1-HIS3 expression, MMY9 cells, Ste2p; format: cell-based; set-up: stimulates the endogenous yeast receptor Ste2p; endogenous in cells; host or cells: Saccharomyces cerevisiae strain MMY9 (derived from W303-1A, MATa); details: MMY9 cells with pRS314-GPA1, 3 nmol α-factor
T2 sequence (D6VTK4 1-431): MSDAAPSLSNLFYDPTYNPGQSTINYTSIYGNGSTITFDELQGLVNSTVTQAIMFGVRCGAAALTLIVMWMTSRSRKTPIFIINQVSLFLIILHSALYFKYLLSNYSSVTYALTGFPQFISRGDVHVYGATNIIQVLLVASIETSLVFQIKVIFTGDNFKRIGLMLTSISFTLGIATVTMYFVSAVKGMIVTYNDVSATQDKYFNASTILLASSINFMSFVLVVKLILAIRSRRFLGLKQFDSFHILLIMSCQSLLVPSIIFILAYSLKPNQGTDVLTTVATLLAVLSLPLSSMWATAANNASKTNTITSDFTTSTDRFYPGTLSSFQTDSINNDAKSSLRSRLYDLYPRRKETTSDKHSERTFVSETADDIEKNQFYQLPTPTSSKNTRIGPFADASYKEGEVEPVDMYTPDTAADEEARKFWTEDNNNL
Procedure: as §1, §2

B1: Gpa1p: endogenous yeast Gα subunit, product of the GPA1 gene (protein, UniProt P08539 2-472, looked up)
Guanine nucleotide-binding …: GCTVSTQTIGDESDPFLQNKRANDVIEQSLQLEKQRDKNEIKLLLLGAGESGKSTVLKQLKLLHQGGFSHQERLQYAQVIWADAIQSMKILIIQARKLGIQLDCDDPINNKDLFACKRILLKAKALDYINASVAGGSDFLNDYVLKYSERYETRRRVQSTGRAKAAFDEDGNISNVKSDTDRDAETVTQNEDADRNNSSRINLQDICKDLNQEGDDQMFVRKTSREIQGQNRRNLIHEDIAKAIKQLWNNDKGIKQCFARSNEFQLEGSAAYYFDNIEKFASPNYVCTDEDILKGRIKTTGITETEFNIGSSKFKVLDAGGQRSERKKWIHCFEGITAVLFVLAMSEYDQMLFEDERVNRMHESIMLFDTLLNSKWFKDTPFILFLNKIDLFEEKVKSMPIRKYFPDYQGRVGDAEAGLKYFEKIFLSLNKTNKPIYVKRTCATDTQTMKFVLSAVTDLIIQQNLKKIGII
agonist-dependent activation of FUS1-HIS3 (halo of cell growth) [1]: responded to somatostatin
agonist-dependent activation of FUS1-HIS3 (halo of cell growth) [2]: increased expression of FUS1-HIS3 to enable a halo of cell growth
